Data taken from paper PMC8060896 (The Journal of Biological Chemistry, 2002).

Legend:
[1] = molecular target: N-CEACAMFc (N-domain of murine CEACAM1^a linked to a carboxyl-terminal IgG1 Fc) (murine); experiment: pull-down
[2] = molecular target: the molecule itself; experiment: velocity sucrose gradient ultracentrifugation
[3] = molecular target: N-CEACAMFc (N-domain of murine CEACAM1^a linked to a carboxyl-terminal IgG1 Fc) (murine); experiment: pull-down; remark: listed apart in the source
Target sequence in this assay (P31809 35-428): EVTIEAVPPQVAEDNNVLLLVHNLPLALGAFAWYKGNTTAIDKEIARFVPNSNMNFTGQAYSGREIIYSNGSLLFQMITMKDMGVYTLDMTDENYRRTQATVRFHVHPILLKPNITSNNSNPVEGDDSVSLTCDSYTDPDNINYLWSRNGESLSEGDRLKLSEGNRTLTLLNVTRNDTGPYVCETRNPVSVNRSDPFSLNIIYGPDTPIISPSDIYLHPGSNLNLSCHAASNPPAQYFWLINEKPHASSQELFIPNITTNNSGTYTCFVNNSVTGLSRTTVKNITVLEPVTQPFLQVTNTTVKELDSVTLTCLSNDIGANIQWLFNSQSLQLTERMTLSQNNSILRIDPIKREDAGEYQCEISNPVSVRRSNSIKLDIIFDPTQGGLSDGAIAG

| Molecule | 35S in the boxed band precipitated with N-CEACAMFc [1] [cpm] | further results |
| --- | --- | --- |
| Hetero-oligomer of S_(T212S/Y214S/Y216S) with wild-type S1_(330) (from UniProt P11225 14-1235; P11225 14-330) (complex) | 4330 |  |
| S_(T212S/Y214S/Y216S) (full-length S of JHM strain with the indicated substitutions) (from UniProt P11225 14-1235) (natural protein) | 2140 |  |
| S1 (769-residue S1 fragment of the MHV strain JHM spike protein, produced independently from cDNA) (domain or fragment) GYIGDFRCIQTVNYNGNNASAPSISTEAVDVSKGLGTYYVLDRVYLNATLLLTGYYPVDGSNYRNLALTGTNTLSLTWFKPPFLSEFNDGIFAKVQNLKTNTPTGATSYFPTIVIGSLFGNTSYTVVLEPYNNIIMASVCTYTICQLPYTPCKPNTNGNRVIGFWHTDVKPPICLLKRNFTFNVNAPWLYFHFYQQGGTFYAYYADKPSATTFLFSVYIGDILTQYFVLPFICTPTAGSTLLPLYWVTPLLKRQYLFNFNEKGVITSAVDCASSYISEIKCKTQSLLPSTGVYDLSGYTVQPVGVVYRRVPNLPDCKIEEWLTAKSVPSPLNWERRTFQNCNFNLSSLLRYVQAESLSCNNIDASKVYGMCFGSVSVDKFAIPRSRQIDLQIGNSGFLQTANYKIDTAATSCQLYYSLPKNNVTINNYNPSSWNRRYGFNDAGVFGKSKHDVAYAQQCFTVRPSYCPCAQPDIVSACTSQTKPMSAYCPTGTIHRECSLWNGPHLRSARVGSGTYTCECTCKPNPFDTYDLRCGQIKTIVNVGDHCEGLGVLEDKCGNSDPHKGCSCANDSFIGWSHDTCLVNDRCQIFANILLNGINSGTTCSTDLQLPNTEVATGVCVRYDLYGITGQGVFKEVKADYYNSWQALLYDVNGNLNGFRDLTTNKTYTIRSCYSGRVSAAYHKEAPEPALLYRNINCSYVFTNNISREENPLNYFDSYLGCVVNADNRTDEALPNCDLRMGAGLCVDYSKSRRARR |  | stoichiometry N [2]: 2 |
| S1 co-produced with N-CEACAMFc in 293 cells (domain or fragment) GYIGDFRCIQTVNYNGNNASAPSISTEAVDVSKGRGTYYVLDRVYLNATLLLTGYYPVDGSNYRNLALTGTNTLSLTWFKPPFLSEFNDGIFAKVQNLKTNTPTGATSYFPTIVIGSLFGNTSYTVVLEPYNNIIMASVCTYTICQLPYTPCKPNTNGNRVIGFWHTDVKPPICLLKRNFTFNVNAPWLYFHFYQQGGTFYAYYADKPSATTFLFSVYIGDILTQYFVLPFICTPTAGSTLAPLYWVTPLLKRQYLFNFNEKGVITSAVDCASSYISEIKCKTQSLLPSTGVYDLSGYTVQPVGVVYRRVPNLPDCKIEEWLTAKSVPSPLNWERRTFQNCNFNLSSLLRYVQAESLSCNNIDASKVYGMCFGSVSVDKFAIPRSRQIDLQIGNSGFLQTANYKIDTAATSCQLYYSLPKNNVTINNYNPSSWNRRYGFKVNDRCQIFANILLNGINSGTTCSTDLQLPNTEVATGVCVRYDLYGITGQGVFKEVKADYYNSWQALLYDVNGNLNGFRDLTTNKTYTIRSCYSGRVSAAYHKEAPEPALLYRNINCSYVFTNNISREENPLNYFDSYLGCVVNADNRTDEALPNCNLRMGAGLCVDYSKSRRARRSVSTGYRLTTFEPYMPMLVNDSVQSVGGLYEMQIPTNFTIGHHEEFIQIRAPKVTIDCAAFVCGDNAACRQQLVEYGSFCDNVNAILNEVNNLLDNMQLQVASALMQGVTISSRLPDGISGPIDDINFSPLLGCIGSTCAE |  | ^35S-labeled S1:^35S-labeled N-CEACAMFc ratio [3]: 3.4 |
